Measurements as given in the supplement of paper PMC10567573.

B1: KLHL20 (parent)
chain: YQDMIYAVGGRDDTTELSSAERYN

Variants of: B1
Assay: protein stability index of a GFP-peptide fusion (GPS, HEK-293T) (PSI 1-6); higher = more stable
Conditions: c terminus: a fixed tail appended
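Further: lentivirally expressed fusions sorted by FACS into six bins by GFP to DsRed ratio, PSI derived from sequencing read proportions per bin multiplied by bin number.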

Variant	protein stability index
YQDMIYAVGGRDDTTFLSSAERYN [E16F]	1.75
YQDMIYAVGGRDDRTELSSAERYN [T14R]	2.13
YQDMIYAVGGRRDTTELSSAERYN [D12R]	1.78
YQDMIYAVGGRDDTTLLSSAERYN [E16L]	2.67
YQDIIYAVGGRDDTTELSSAERYN [M4I]	2.4
YQDMIYAVGGRDDTTWLSSAERYN [E16W]	2.23
YQDMIYAVGGRDDTTEWSSAERYN [L17W]	2.45
YDDMIYAVGGRDDTTELSSAERYN [Q2D]	4.86
YQDMIYAVGGRDDTTELSSAEHYN [R22H]	2.38
YEDMIYAVGGRDDTTELSSAERYN [Q2E]	5.02
YQDMIYAVGGRDDTTELSSASRYN [E21S]	1.92
YQDMIYAVGGRDDTTENSSAERYN [L17N]	2.38
YQDMIYWVGGRDDTTELSSAERYN [A7W]	2.92
YQDMGYAVGGRDDTTELSSAERYN [I5G]	3.14
YQDMIYAVGDRDDTTELSSAERYN [G10D]	2.81
IQDMIYAVGGRDDTTELSSAERYN [Y1I]	4.05
YQDMIYAVGGRDDTTKLSSAERYN [E16K]	1.85
YQDMIYAVGGRDDTTELSSAERQN [Y23Q]	3.05
YQDGIYAVGGRDDTTELSSAERYN [M4G]	2.48
YQDMIYAVGGRDDTTELSFAERYN [S19F]	2.31
YQDMILAVGGRDDTTELSSAERYN [Y6L]	2.88
YQDTIYAVGGRDDTTELSSAERYN [M4T]	3.15
YQDMTYAVGGRDDTTELSSAERYN [I5T]	3.17
YQDMIYAAGGRDDTTELSSAERYN [V8A]	2.77

Variant	protein stability index
YQDMIYAVGGRDDTTELSEAERYN [S19E]	2.45
YQDMIYAVGGRPDTTELSSAERYN [D12P]	2.34
YRDMIYAVGGRDDTTELSSAERYN [Q2R]	3.6
YQDMIYAVGGRDDTTALSSAERYN [E16A]	1.95
YQDMIYAVGGRDDTTELSSAETYN [R22T]	2.18
YQDMIYAVGGRDDTTELFSAERYN [S18F]	2.63
YQDMIYAVGGRDDTTMLSSAERYN [E16M]	2.08
YQIMIYAVGGRDDTTELSSAERYN [D3I]	2.26
YQDMIYSVGGRDDTTELSSAERYN [A7S]	2.55
YQDMIYAVTGRDDTTELSSAERYN [G9T]	2.4
YQDMIYAVGGRDDTTELSSAERNN [Y23N]	2.59
YQDMFYAVGGRDDTTELSSAERYN [I5F]	1.79
YQDMIYAMGGRDDTTELSSAERYN [V8M]	1.75
YQDMIYARGGRDDTTELSSAERYN [V8R]	2.52
YQDMIYAVGGRDDWTELSSAERYN [T14W]	1.56
YQDMPYAVGGRDDTTELSSAERYN [I5P]	2.72
YQDMIYAVGGRDDTTELSSAERYQ [N24Q]	2.48
YQDMIYAVGGRDDTTELSSAERYK [N24K]	2.16
YQDMIYAVGGRDDTTELSSAERYP [N24P]	2.42
YQDMIYAVGGRDDTGELSSAERYN [T15G]	2.21
DQDMIYAVGGRDDTTELSSAERYN [Y1D]	5.33
YVDMIYAVGGRDDTTELSSAERYN [Q2V]	1.96
YQDMIYAVGGRDDTTELSSAERYC [N24C]	2.02
YQDMIYAVCGRDDTTELSSAERYN [G9C]	2.23

Variant	protein stability index
YQDMIYAVGGRDDTTELSSAERYL [N24L]	2.69
YQDMIYAVGRRDDTTELSSAERYN [G10R]	1.86
YQDMEYAVGGRDDTTELSSAERYN [I5E]	3.98
YQDMIYAVKGRDDTTELSSAERYN [G9K]	2.07
YQDMIYAVGGRWDTTELSSAERYN [D12W]	1.8
YQDMWYAVGGRDDTTELSSAERYN [I5W]	2.48
YQDMIYAVGGRDDTTCLSSAERYN [E16C]	1.5
YQFMIYAVGGRDDTTELSSAERYN [D3F]	1.88
YQDMIYAVGGRQDTTELSSAERYN [D12Q]	2.09
YQDMIYRVGGRDDTTELSSAERYN [A7R]	1.76
YQDMIYAVGGRDDTTELSSFERYN [A20F]	2.04
YQDMIYAVGGRDDTTELSSAERHN [Y23H]	2.64
YQDMIYAVGGRDDTTELSSATRYN [E21T]	2.11
YQDMIYAVGGRDDTTELSSAERLN [Y23L]	2.25
YQKMIYAVGGRDDTTELSSAERYN [D3K]	2.79
YQDMIIAVGGRDDTTELSSAERYN [Y6I]	3.08
YQDMIDAVGGRDDTTELSSAERYN [Y6D]	4.74
YQSMIYAVGGRDDTTELSSAERYN [D3S]	1.99
YQDMIYAVGGRDDTQELSSAERYN [T15Q]	3.13
YQDMIPAVGGRDDTTELSSAERYN [Y6P]	3.41
YQDMIYAVGGRDDTTELSSAERYD [N24D]	3.62
YQDMIYAVGGHDDTTELSSAERYN [R11H]	2.1
YQDMIYAVGGRDDTTELSSAMRYN [E21M]	2.75
YQDMIYAVDGRDDTTELSSAERYN [G9D]	2.88

Variant	protein stability index
YWDMIYAVGGRDDTTELSSAERYN [Q2W]	2.87
YQDMIYAVGGRDDTTELSSAEMYN [R22M]	2.03
YQDMIYAVGGRDDTTELDSAERYN [S18D]	2.43
YQDMIYAVGGRDDTTELSSAERTN [Y23T]	2.37
AQDMIYAVGGRDDTTELSSAERYN [Y1A]	4.78
YCDMIYAVGGRDDTTELSSAERYN [Q2C]	2.02
YQDMIYAVGGRDDTTELSPAERYN [S19P]	2.66
YQDMIYAVGGRDDSTELSSAERYN [T14S]	2.48
YQDMIYAKGGRDDTTELSSAERYN [V8K]	2.44
YQDMIYAVGGRDDTTELNSAERYN [S18N]	2.66
YQDMIYAVGGRDDTTTLSSAERYN [E16T]	2.17
YQDMIYAVGGRDDTTELSAAERYN [S19A]	2.87
YQDMISAVGGRDDTTELSSAERYN [Y6S]	3.88
LQDMIYAVGGRDDTTELSSAERYN [Y1L]	4.26
YQDMIYAVGGRDDTKELSSAERYN [T15K]	2.13
YQDMIYAVGGRDCTTELSSAERYN [D13C]	1.8
YQDMIYAVGGRDDTTEASSAERYN [L17A]	2.44
YQDMIYAVGGRDDTTEESSAERYN [L17E]	2.58
YQDMIYAVGGRDDTTELSWAERYN [S19W]	1.99
YQDMIYAVGGRDDTTELSSDERYN [A20D]	2.79
YQDMIYAVGGRDDTTELSSAERYI [N24I]	2.02
CQDMIYAVGGRDDTTELSSAERYN [Y1C]	4.21
